{"source": "paper PMC7241850", "key": {"[1]": {"target": "HIV-1 Env NE1 Q563R (HIV-1 (clade B, individual 653116))"}, "[2]": {"target": "HIV-1 Env E1 R563Q (HIV-1 (clade B, individual 653116))"}}}
{"substance": "HIV-1 IIIB C34 Peptide", "values": [{"measurement": "IC50 of inhibition of infection of TZM-bl cells by pseudovirus (luciferase)", "setting": "[1]", "result": 0.04, "unit": "µg/mL"}, {"measurement": "IC50 of inhibition of infection of TZM-bl cells by pseudovirus (luciferase)", "setting": "[2]", "result": 0.6, "unit": "µg/mL"}]}
